The record followed here is patent US20120308570A1, “METHODS FOR TREATING DISEASES” (priority 2009, published 2012).

To fix the notation:
T1: full-length iNOS protein (endogenous, from LPS/IFNγ-treated mouse bone marrow-derived macrophages) (mouse, UniProt P29477 1-1144)
T1 construct: Not purified: present in macrophage lysates; Detected by Western blot with anti-iNOS antibody; also called NOS2; inducible nitric oxide synthase
T1 sequence: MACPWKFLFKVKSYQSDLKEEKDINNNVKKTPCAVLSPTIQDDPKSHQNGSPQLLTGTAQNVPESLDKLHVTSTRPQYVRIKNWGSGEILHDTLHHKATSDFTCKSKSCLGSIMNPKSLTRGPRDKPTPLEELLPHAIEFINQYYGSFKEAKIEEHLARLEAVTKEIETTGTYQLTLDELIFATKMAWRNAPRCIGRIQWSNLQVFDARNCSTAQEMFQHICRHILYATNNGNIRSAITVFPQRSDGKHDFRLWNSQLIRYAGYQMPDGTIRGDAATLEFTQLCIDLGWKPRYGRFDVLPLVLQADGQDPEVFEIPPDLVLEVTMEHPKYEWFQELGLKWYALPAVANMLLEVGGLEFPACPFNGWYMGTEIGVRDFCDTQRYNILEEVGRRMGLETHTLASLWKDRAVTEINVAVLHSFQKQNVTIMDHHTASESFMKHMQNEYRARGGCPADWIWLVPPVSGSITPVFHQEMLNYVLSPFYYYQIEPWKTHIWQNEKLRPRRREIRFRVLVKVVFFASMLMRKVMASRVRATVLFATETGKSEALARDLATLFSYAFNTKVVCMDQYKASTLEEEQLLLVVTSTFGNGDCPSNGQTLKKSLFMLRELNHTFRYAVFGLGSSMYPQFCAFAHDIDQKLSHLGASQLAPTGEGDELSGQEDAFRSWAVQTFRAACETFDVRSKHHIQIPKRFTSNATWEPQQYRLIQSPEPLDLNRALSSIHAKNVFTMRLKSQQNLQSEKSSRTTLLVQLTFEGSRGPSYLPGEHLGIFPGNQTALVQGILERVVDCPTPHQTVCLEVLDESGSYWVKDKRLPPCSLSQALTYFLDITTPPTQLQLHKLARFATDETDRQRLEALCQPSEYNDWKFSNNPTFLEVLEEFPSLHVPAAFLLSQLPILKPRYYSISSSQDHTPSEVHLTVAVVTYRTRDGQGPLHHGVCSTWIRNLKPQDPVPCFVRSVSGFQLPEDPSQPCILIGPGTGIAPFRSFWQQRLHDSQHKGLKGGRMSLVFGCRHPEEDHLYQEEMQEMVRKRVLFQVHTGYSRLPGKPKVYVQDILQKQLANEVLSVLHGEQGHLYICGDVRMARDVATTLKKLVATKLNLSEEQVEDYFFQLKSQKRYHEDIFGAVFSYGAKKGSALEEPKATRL

T2: SSB-2ΔSB (recombinant murine SSB-2 SPRY domain, residues 12-224) (mouse, UniProt O88838 12-224)
T2 construct: 226 residues in total; expressed as GST fusion in E. coli, GST cleaved off with thrombin; 15N-labelled for NMR; coupled to NHS-Sepharose for pull-downs; also called SPSB2
T2 sequence: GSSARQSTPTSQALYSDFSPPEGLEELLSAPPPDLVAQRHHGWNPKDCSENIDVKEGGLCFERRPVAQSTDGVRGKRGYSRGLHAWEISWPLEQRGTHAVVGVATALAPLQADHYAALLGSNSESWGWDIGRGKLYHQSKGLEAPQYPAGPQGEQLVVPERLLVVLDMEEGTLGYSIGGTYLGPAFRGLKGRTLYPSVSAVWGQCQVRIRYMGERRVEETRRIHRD

B1: Flag-tagged SSB-1 transgene product (a.a. 2-274), in BMDM of Ssb-1 T/+ mice (other)
chain: DYKDDDDKGQKVTGGIKTVDMRDPTYRPLKQELQGLDYCKPTRLDLLLDMPPVSYDVQLLHSWNNNDRSLNVFVKEDDKLIFHRHPVAQSTDAIRGKVGYTRGLHVWQITWAMRQRGTHAVVGVATADAPLHSVGYTTLVGNNHESWGWDLGRNRLYHDGKNQPSKTYPAFLEPDETFIVPDSFLVALDMDDGTLSFIVDGQYMGVAFRGLKGKKLYPVVSAVWGHCEIRMRYLNGLDPEPLPLMDLCRRSVRLALGKERLGAIPALPLPASLKAYLLYQ
notes: The printed end of the range may exceed the entry's length; also called full-length SSB-1
B2: Flag-tagged SSB-2ΔSB transgene product (a.a. 2-224, without the SOCS box), in BMDM of Ssb-2ΔSB T/+ mice (other)
chain: DYKDDDDKGQTALARGSSSTPTSQALYSDFSPPEGLEELLSAPPPDLVAQRHHGWNPKDCSENIDVKEGGLCFERRPVAQSTDGVRGKRGYSRGLHAWEISWPLEQRGTHAVVGVATALAPLQADHYAALLGSNSESWGWDIGRGKLYHQSKGLEAPQYPAGPQGEQLVVPERLLVVLDMEEGTLGYSIGGTYLGPAFRGLKGRTLYPSVSAVWGQCQVRIRYMGERRVEE
notes: also called SOCS box-deleted SSB-2
B3: Flag-tagged SSB-1ΔSB transgene product (a.a. 2-233, without the SOCS box), in BMDM of Ssb-1ΔSB T/+ mice (other)
chain: DYKDDDDKGQKVTGGIKTVDMRDPTYRPLKQELQGLDYCKPTRLDLLLDMPPVSYDVQLLHSWNNNDRSLNVFVKEDDKLIFHRHPVAQSTDAIRGKVGYTRGLHVWQITWAMRQRGTHAVVGVATADAPLHSVGYTTLVGNNHESWGWDLGRNRLYHDGKNQPSKTYPAFLEPDETFIVPDSFLVALDMDDGTLSFIVDGQYMGVAFRGLKGKKLYPVVSAVWGHCEIRMRYLNGLDPE
notes: also called SOCS box-deleted SSB-1
B4: Flag-tagged SSB-2 transgene product (a.a. 3-265), in BMDM of Ssb-2 T/+ mice (other)
chain: DYKDDDDKQTALARGSSSTPTSQALYSDFSPPEGLEELLSAPPPDLVAQRHHGWNPKDCSENIDVKEGGLCFERRPVAQSTDGVRGKRGYSRGLHAWEISWPLEQRGTHAVVGVATALAPLQADHYAALLGSNSESWGWDIGRGKLYHQSKGLEAPQYPAGPQGEQLVVPERLLVVLDMEEGTLGYSIGGTYLGPAFRGLKGRTLYPSVSAVWGQCQVRIRYMGERRVEEPQSLLHLSRLCVRHALGDTRLGQISTLPLPPAMKRYLLYK
notes: The printed end of the range may exceed the entry's length; also called full-length SSB-2
B5: Flag-tagged SSB-2 mutant R100/G101 to alanine (other)
chain: DYKDDDDKMGQTALARGSSSTPTSQALYSDFSPPEGLEELLSAPPPDLVAQRHHGWNPKDCSENIDVKEGGLCFERRPVAQSTDGVRGKRGYSRGLHAWEISWPLEQAATHAVVGVATALAPLQADHYAALLGSNSESWGWDIGRGKLYHQSKGLEAPQYPAGPQGEQLVVPERLLVVLDMEEGTLGYSIGGTYLGPAFRGLKGRTLYPSVSAVWGQCQVRIRYMGERRVEEPQSLLHLSRLCVRHALGDTRLGQISTLPLPPAMKRYLLYK
B6: Flag-tagged SSB-2 mutant Y120 to phenylalanine (other)
chain: B5 chain with A108R, A109G, Y128F
B7: Flag-tagged SSB-2 mutant V206 to alanine (other)
chain: B5 chain with A108R, A109G, V214A
B8: Flag-tagged SSB-2 mutant Y120 to alanine (other)
chain: B5 chain with A108R, A109G, Y128A

Changes are numbered by the printed parent chain.

The target of the first assay is T1, full-length iNOS protein (endogenous, …). The experiment in a line: anti-Flag immunoprecipitation from transgenic BMDM, anti-iNOS re-blot. As for the experimental part: Cells were incubated with IFNγ and LPS as described, and lysed in KALB lysis buffer (Nicholson et al., 1995) containing protease inhibitors (Complete Cocktail tablets, Roche), 1 mM phenylmethylsulphonyl fluoride, 1 mM Na₃VO₄ and 1 mM NaF. Proteins were immunoprecipitated using anti-Flag antibody conjugated to Sepharose (M2; EASTMAN KODAK). Proteins were separated by sodium dodecyl sulphatepolyacrylamide gel electrophoresis (SDS-PAGE) under reducing conditions and electrophoretically transferred to Biotrace PVDF membranes (Pall Corp. Ann Arbor, Mich.). Membranes were blocked overnight in 10% w/v skim milk and incubated with primary antibody for 2 h. Antibody binding was visualized with either peroxidase-conjugated goat anti-rat immunoglobulin (Southern Biotech) or peroxidase-conjugated sheep anti-rabbit immunoglobulin (Chemicon, Melbourne, Australia), and the enhanced chemiluminescence (ECL) system (Amersham, Little Chalfont, Buckinghamshire, UK). To re-blot, the membrane was first stripped of antibodies in 0.1 M glycine, pH 2.9.
As genetic deletion of SSB-2 appeared to result in elevation of iNOS levels, it was tested whether artificially increasing SSB levels could correspondingly down-regulate iNOS expression. BMDM were generated from mice expressing either a Flag-tagged Ssb-1 or Ssb-2 transgene under a constitutive promoter (Ssb-1^{T/+}, Ssb-2^{T/+}) and from wild-type littermate control mice. […] Macrophage expression of the SSB transgenes was confirmed by anti-FLAG immunoprecipitation and Western blot (FIGS. 9C and 10C, top panels).
B1: the binding result is “binds”. Still for that read-out and setting: the entry for B2 is “binds”. On the same count and under the same terms, the entry for B3 is “binds”; for B4 it is “binds”.

The target is the same in a further assay. The experiment in a line: anti-Flag co-immunoprecipitation, anti-iNOS Western blot. From the text: FIG. 6. Interaction between iNOS and SSB-1, -2, and -4 and SSB-2 residues affecting 10 iNOS binding. (A) iNOS interacts preferentially with SSB-2 and SSB-4. 293T cells were transiently transfected with vector alone or cDNA encoding either Flag-tagged SSB-1, SSB-2, SSB-3 or SSB-4. Cells were lysed, and mixed with BMDM lysates from cells induced to express iNOS. Flag-tagged proteins were immunoprecipitated using anti-Flag antibodies (M2-beads) and separated by SDSPAGE. Co-immunoprecipitation of iNOS was detected by Western blot with anti-iNOS antibodies (upper panel). Membranes were stripped and reprobed with rat anti-Flag antibodies (middle panel). Comparative expression of Flag-tagged proteins in 293T lysates is shown by Western blot (lower panel). (B) SSB-2 residues affecting iNOS binding. Residues in the SSB-2 SPRY domain were mutated to Ala or Phe (for Y120) based on SSB-2 structure and sequence conservation. 293T cells 20 were transiently transfected with cDNA encoding Flag-tagged wild-type or mutant SSB-2. Cells were lysed, and mixed with BMDM lysates from cells induced to express iNOS. Flag-tagged proteins were immunoprecipitated using anti-Flag antibodies and separated by SDS-PAGE. Coimmunoprecipitation of iNOS was detected by Western blot with anti-iNOS antibodies.
For B5, the binding result is given as “no binding”. Consider B6, for which the binding result was “no binding”. On the same count and under the same terms, under B7 stands “no binding”; under B8, “no binding”.

A further assay deals with T2, SSB-2ΔSB (recombinant murine SSB-2 SPRY …). The experiment in a line: ITC, 25 C, peptide injected into SSB-2ΔSB. As for the experimental part: FIG. 3. Typical ITC raw data and titration curves for SSB-2 and iNOS peptide interactions. Titration curves were fitted using the “One Set of Sites” model in MicroCal Origin.
Wild-type and mutant iNOS peptides (Table 2), corresponding to Lys19-Thr31 of mouse iNOS, were synthesized by GL Biochem (Shanghai) Ltd. These peptides were N-terminal acetylated and C-terminal amidated. All ITC measurements were carried out at 25° C. using a Microcal omega VP-ITC (Microcal Inc., Northampton, Mass.). SSB-2ΔSB was dialysed against buffer (100 mM TrisHCl, 150 mM NaCl, pH 8.0), and wild-type and mutant iNOS N-terminal peptides were prepared in the same buffer from 5 mM stocks. Solutions of 5 to 10 μM SSB-2ΔSB in the cell were titrated by injection of a total of 290 μL of 50-200 μM of iNOS peptides. Data analysis was performed using the evaluation software, MicroCal Origin version 5.0. All curves were fitted using the nonlinear least-squares fitter and the “One Set of Sites” model.
Consider Ac-KEAKDINNNVKKT-NH2 [iNOS N-terminal peptide II, Ac-KEAKDINNNVKKT-NH2], for which the Kd came out at 14 nM. Same read-out and setting: the figure for Ac-KEEKDINNNAKAT-NH2 [iNOS N-terminal peptide XIV, Ac-KEEKDINNNAKAT-NH2] is 180 nM. On the same count and under the same terms, the figure for Ac-KEEKAINNNVKKT-NH2 [iNOS N-terminal peptide V, Ac-KEEKAINNNVKKT-NH2] is 21600 nM; for Ac-KEAADINNNVKKT-NH2 [iNOS N-terminal peptide IV, Ac-KEAADINNNVKKT-NH2] it is 65.4 nM. Same read-out and setting: the figure for Ac-KEEKDIQNNVKKT-NH2 [iNOS N-terminal peptide VIII, Ac-KEEKDIQNNVKKT-NH2] is 40500 nM.

Take Ac-KEEADINNNVKKT-NH2 [iNOS N-terminal peptide III, Ac-KEEADINNNVKKT-NH2]: the Kd worked out at 127 nM. On the same count and under the same terms, the figure for Ac-KEEKDANNNVKKT-NH2 [iNOS N-terminal peptide VI, Ac-KEEKDANNNVKKT-NH2] is 23.5 nM; for Ac-KEEKDINANVKKT-NH2 [iNOS N-terminal peptide IX, Ac-KEEKDINANVKKT-NH2] it is 826 nM. On the same count and under the same terms, under Ac-KEEKDIANNVKKT-NH2 [iNOS N-terminal peptide VII, Ac-KEEKDIANNVKKT-NH2] stands 17200 nM.
